Assay results taken from article PMC7375243, “Structural Basis of Human Helicase DDX21 in RNA Binding, Unwinding, and Antiviral Signal Activation” (Advanced Science, 2020).

Key:
[1] = target: the molecule itself; experiment: SEC; gel filtration of DDX21 del-C (1-710) and del-NC (188-710), data not shown; final SEC buffer of del-C with 200 mM NaCl
DDX21 full-length = target: T1, DDX21 full-length (human, UniProt Q9NR30 1-783); experiment: UV crosslinking/MST/SEC (method for this pair not specified); MST: 50 mM Tris pH 7.5, 50 mM KCl, 2 mM MgCl2, 1 mM TCEP, 0.01% NP-40, 0.05 mg/mL BSA, 2 mM AMPPNP, 50 nM FAM-RNA; temperature not given; crosslinking buffer not in material; settings: protein: recombinant; tags: N-terminal His-SUMO, removed by ULP1; chain copies: 3; single strand
T1 sequence: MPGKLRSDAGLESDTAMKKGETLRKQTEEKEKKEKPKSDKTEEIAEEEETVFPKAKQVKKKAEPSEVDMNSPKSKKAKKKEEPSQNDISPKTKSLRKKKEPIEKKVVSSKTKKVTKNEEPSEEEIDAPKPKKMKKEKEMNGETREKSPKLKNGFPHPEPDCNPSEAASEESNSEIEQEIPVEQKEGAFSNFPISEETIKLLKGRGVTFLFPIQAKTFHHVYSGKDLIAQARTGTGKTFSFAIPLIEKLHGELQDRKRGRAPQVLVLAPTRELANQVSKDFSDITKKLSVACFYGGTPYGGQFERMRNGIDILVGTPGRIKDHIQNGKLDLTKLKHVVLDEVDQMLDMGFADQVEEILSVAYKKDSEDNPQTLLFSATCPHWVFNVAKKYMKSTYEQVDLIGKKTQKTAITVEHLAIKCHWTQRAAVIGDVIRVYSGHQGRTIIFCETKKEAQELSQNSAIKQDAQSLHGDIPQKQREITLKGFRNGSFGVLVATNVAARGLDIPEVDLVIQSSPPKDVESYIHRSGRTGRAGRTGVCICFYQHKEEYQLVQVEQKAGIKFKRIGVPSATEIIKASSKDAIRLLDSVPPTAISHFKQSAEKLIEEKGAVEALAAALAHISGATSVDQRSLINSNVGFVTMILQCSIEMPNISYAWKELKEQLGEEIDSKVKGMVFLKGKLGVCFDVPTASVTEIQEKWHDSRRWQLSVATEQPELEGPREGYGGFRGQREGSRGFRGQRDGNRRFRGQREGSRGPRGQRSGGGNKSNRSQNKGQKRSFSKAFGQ

[2] = target: T2, DDX21 helicase core (D1D2, DDX21-delNC) (human, UniProt Q9NR30 188-563); experiment: crystal structure; AMPPNP, Mg2+; 2.24 A, 7 nt visible; MST: 50 mM Tris pH 7.5, 50 mM KCl, 2 mM MgCl2, 1 mM TCEP, 0.01% NP-40, 0.05 mg/mL BSA, 2 mM AMPPNP, 50 nM FAM-RNA; temperature not given; crosslinking buffer not in material; settings: protein: recombinant; tags: N-terminal His-SUMO, removed by ULP1; single strand
T2 sequence: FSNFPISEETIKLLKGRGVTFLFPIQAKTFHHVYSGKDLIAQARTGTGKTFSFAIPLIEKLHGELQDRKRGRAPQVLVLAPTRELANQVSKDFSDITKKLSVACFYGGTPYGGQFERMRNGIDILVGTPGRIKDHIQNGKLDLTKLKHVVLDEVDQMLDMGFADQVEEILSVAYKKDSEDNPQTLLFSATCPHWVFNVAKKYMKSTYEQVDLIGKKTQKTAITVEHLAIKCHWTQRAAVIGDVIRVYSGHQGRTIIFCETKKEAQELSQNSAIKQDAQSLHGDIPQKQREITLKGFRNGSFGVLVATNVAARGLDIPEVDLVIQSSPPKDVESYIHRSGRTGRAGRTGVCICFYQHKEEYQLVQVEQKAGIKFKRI

[3] = target: the molecule itself; experiment: SAXS; beamline BL19U2, 1-3 mg/mL protein; 20 mM Tris-HCl pH 7.5, 1 mM TCEP, 100 mM NaCl for DDX21 (188-563), 500 mM NaCl for DDX21 (1-783); ab initio envelopes (GASBOR)

B1: DDX21 del-NC (188-710) (domain or fragment, human, UniProt Q9NR30-1 188-710, looked up)
chain: FSNFPISEETIKLLKGRGVTFLFPIQAKTFHHVYSGKDLIAQARTGTGKTFSFAIPLIEKLHGELQDRKRGRAPQVLVLAPTRELANQVSKDFSDITKKLSVACFYGGTPYGGQFERMRNGIDILVGTPGRIKDHIQNGKLDLTKLKHVVLDEVDQMLDMGFADQVEEILSVAYKKDSEDNPQTLLFSATCPHWVFNVAKKYMKSTYEQVDLIGKKTQKTAITVEHLAIKCHWTQRAAVIGDVIRVYSGHQGRTIIFCETKKEAQELSQNSAIKQDAQSLHGDIPQKQREITLKGFRNGSFGVLVATNVAARGLDIPEVDLVIQSSPPKDVESYIHRSGRTGRAGRTGVCICFYQHKEEYQLVQVEQKAGIKFKRIGVPSATEIIKASSKDAIRLLDSVPPTAISHFKQSAEKLIEEKGAVEALAAALAHISGATSVDQRSLINSNVGFVTMILQCSIEMPNISYAWKELKEQLGEEIDSKVKGMVFLKGKLGVCFDVPTASVTEIQEKWHDSRRWQLSVATE
notes: human DDX21, residues 188-710
- stoichiometry N [1]: 2

B2: DDX21 del-C (1-710) (domain or fragment, human, UniProt Q9NR30-1 1-710, looked up)
chain: MPGKLRSDAGLESDTAMKKGETLRKQTEEKEKKEKPKSDKTEEIAEEEETVFPKAKQVKKKAEPSEVDMNSPKSKKAKKKEEPSQNDISPKTKSLRKKKEPIEKKVVSSKTKKVTKNEEPSEEEIDAPKPKKMKKEKEMNGETREKSPKLKNGFPHPEPDCNPSEAASEESNSEIEQEIPVEQKEGAFSNFPISEETIKLLKGRGVTFLFPIQAKTFHHVYSGKDLIAQARTGTGKTFSFAIPLIEKLHGELQDRKRGRAPQVLVLAPTRELANQVSKDFSDITKKLSVACFYGGTPYGGQFERMRNGIDILVGTPGRIKDHIQNGKLDLTKLKHVVLDEVDQMLDMGFADQVEEILSVAYKKDSEDNPQTLLFSATCPHWVFNVAKKYMKSTYEQVDLIGKKTQKTAITVEHLAIKCHWTQRAAVIGDVIRVYSGHQGRTIIFCETKKEAQELSQNSAIKQDAQSLHGDIPQKQREITLKGFRNGSFGVLVATNVAARGLDIPEVDLVIQSSPPKDVESYIHRSGRTGRAGRTGVCICFYQHKEEYQLVQVEQKAGIKFKRIGVPSATEIIKASSKDAIRLLDSVPPTAISHFKQSAEKLIEEKGAVEALAAALAHISGATSVDQRSLINSNVGFVTMILQCSIEMPNISYAWKELKEQLGEEIDSKVKGMVFLKGKLGVCFDVPTASVTEIQEKWHDSRRWQLSVATE
notes: human DDX21, residues 1-710; source: E. coli BL21-CodonPlus (DE3)-RIL, purified (Ni-NTA, ULP1 cleavage, Ni-NTA, Superdex 200); not shown: His-sumo, N-terminal, cleaved
- stoichiometry N [1]: 5

Binder: UUUUUUUUUUUUUUU (ssRNA) [U15]
- binding result (DDX21 full-length): binds
- binding result [2]: binds

B3: full-length DDX21 (1-783) (enzyme, human, UniProt Q9NR30-1 1-783, looked up)
chain: MPGKLRSDAGLESDTAMKKGETLRKQTEEKEKKEKPKSDKTEEIAEEEETVFPKAKQVKKKAEPSEVDMNSPKSKKAKKKEEPSQNDISPKTKSLRKKKEPIEKKVVSSKTKKVTKNEEPSEEEIDAPKPKKMKKEKEMNGETREKSPKLKNGFPHPEPDCNPSEAASEESNSEIEQEIPVEQKEGAFSNFPISEETIKLLKGRGVTFLFPIQAKTFHHVYSGKDLIAQARTGTGKTFSFAIPLIEKLHGELQDRKRGRAPQVLVLAPTRELANQVSKDFSDITKKLSVACFYGGTPYGGQFERMRNGIDILVGTPGRIKDHIQNGKLDLTKLKHVVLDEVDQMLDMGFADQVEEILSVAYKKDSEDNPQTLLFSATCPHWVFNVAKKYMKSTYEQVDLIGKKTQKTAITVEHLAIKCHWTQRAAVIGDVIRVYSGHQGRTIIFCETKKEAQELSQNSAIKQDAQSLHGDIPQKQREITLKGFRNGSFGVLVATNVAARGLDIPEVDLVIQSSPPKDVESYIHRSGRTGRAGRTGVCICFYQHKEEYQLVQVEQKAGIKFKRIGVPSATEIIKASSKDAIRLLDSVPPTAISHFKQSAEKLIEEKGAVEALAAALAHISGATSVDQRSLINSNVGFVTMILQCSIEMPNISYAWKELKEQLGEEIDSKVKGMVFLKGKLGVCFDVPTASVTEIQEKWHDSRRWQLSVATEQPELEGPREGYGGFRGQREGSRGFRGQRDGNRRFRGQREGSRGPRGQRSGGGNKSNRSQNKGQKRSFSKAFGQ
notes: human DDX21, residues 1-783, codon-optimised synthetic gene; The text says it might be a trimer (SAXS, gel filtration); also called WT DDX21; RNA helicase DDX21; source: E. coli BL21-CodonPlus (DE3)-RIL, purified (Ni-NTA, ULP1 cleavage, Ni-NTA, Superdex 200); not shown: His-sumo, N-terminal, cleaved
- stoichiometry N [3]: 3
